B1: NKp30/VASP (receptor)
chain: LWVSQPPEIRTLEGSSAFLPCSFNASQGRLAIGSVTWFRDEVVPGKEVRNGTPEFRGRLAPLASSRFLHDHQAELHIRDVRGHDASIYVCRVEVLGLGVGTGNGTRLVVEKEHPEPRSGSGGSGGSDLQRVKQELLEEVKKELQKVKEEIIEAFVQELRGSGGHHHHHH
notes: no limits or signal peptide residues stated; also called soluble NKp30/VASP A1683F; NKp30/VASP-A647
B2: hzB7H6/VASP-His6 (ligand)
chain: DLKVEMMAGGTQITPLNDNVTIFCNIFYSQPLNITSMGITWFWKSLTFDKEVKVFEFFGDHQEAFRPGAIVSPWRLKSGDASLRLPGIQLEEAGEYRCEVVVTPLKAQGTVQLEVVASPASRLLLDQVGMKENEDKYMCESSGFYPEAINITWEKQTQKFPHPIEISEDVITGPTIKNMDGTFNVTSCLKLNSSQEDPGTVYQCVVRHASLHTPLRSNFTLTAARHSLSETEKTDNFSIHWWPEPRSGSGGSGGSDLQRVKQELLEEVKKELQKVKEEIIEAFVQELRGSGGHHHHHH
notes: also called human zB7H6/VASP; zB7H6 C(VASP)H6

What was measured:
[1] = molecular target: T1, human zB7H6 (full-length, on cells) (human, UniProt Q68D85 25-454); assay: competition FACS on K562 cells against NKp30/mFc2, 100-fold mass excess
T1 construct: also called hzB7H6; hypothetical protein DKFZP686I21167
T1 sequence: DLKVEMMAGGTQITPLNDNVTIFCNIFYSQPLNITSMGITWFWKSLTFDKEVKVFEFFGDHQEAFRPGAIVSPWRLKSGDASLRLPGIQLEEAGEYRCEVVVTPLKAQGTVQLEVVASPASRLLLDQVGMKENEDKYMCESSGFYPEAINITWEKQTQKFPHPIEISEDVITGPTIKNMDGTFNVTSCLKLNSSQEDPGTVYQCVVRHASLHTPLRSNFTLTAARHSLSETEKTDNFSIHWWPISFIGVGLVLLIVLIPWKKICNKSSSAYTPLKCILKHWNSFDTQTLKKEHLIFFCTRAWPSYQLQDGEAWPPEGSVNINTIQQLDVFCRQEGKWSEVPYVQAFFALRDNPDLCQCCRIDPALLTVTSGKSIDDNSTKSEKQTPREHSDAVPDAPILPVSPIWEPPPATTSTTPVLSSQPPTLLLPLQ
Procedure: K562 cells were probed by FACS with a soluble form of NKp30 (NKp30/mFc2 (SEQ ID NO:8), containing the extracellular domain of NKp30 and a murine Fc fragment). K562 cells were resuspended in PBS/2% FBS at a concentration of 1.6×10⁶ cells/ml (160,000 cells/sample). 100 μl samples were aliquoted and 1 μl of whole human IgG (Jackson #009-000-003) added to each. NKp30/mFc2 probe was added at a concentration of 2 μg/ml together with 10 μg/ml Heparin and 100-fold mass excess of a VASP protein (NKp30/VASP or a control VASP protein, human zB7R1/VASP (SEQ ID NO:12) or B7-DC/VASP (SEQ ID NO:13)). Cells were incubated for 1 hour on ice and washed with 2 ml cold PBS. Washed cells were resuspended in 100 μl of PBS/2% FBS with 1 μl PE anti-mIgG (Jackson 115-116-071) and incubated for 30 minutes on ice. Cells were then washed twice with 2 ml cold PBS, resuspended in 500 μl of PBS, and analyzed for PE staining on a FACSCalibur.

NKp30/mFc2 = molecular target: T2, NKp30/mFc2; assay: competition FACS: soluble zB7H6/VASP at 100-fold mass excess competed NKp30/mFc2-biotin binding to K562, 293F and P815 zB7H6 cells
T2 construct: also called soluble NKp30 fusion protein; NKp30/mFc2-biotin
T2 chain: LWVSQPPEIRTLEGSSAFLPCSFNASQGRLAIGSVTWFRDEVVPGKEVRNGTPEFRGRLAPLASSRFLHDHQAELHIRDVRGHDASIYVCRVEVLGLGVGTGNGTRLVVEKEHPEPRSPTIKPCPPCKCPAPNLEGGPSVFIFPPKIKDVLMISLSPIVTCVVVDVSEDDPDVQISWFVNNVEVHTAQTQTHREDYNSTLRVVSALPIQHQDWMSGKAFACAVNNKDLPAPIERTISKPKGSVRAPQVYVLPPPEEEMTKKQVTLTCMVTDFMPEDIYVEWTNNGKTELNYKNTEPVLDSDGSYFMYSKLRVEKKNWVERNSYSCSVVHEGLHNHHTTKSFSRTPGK
Procedure: Cells were resuspended in PBS/2% FBS at a concentration of 1.5×10⁶ cells/ml (150,000 cells/sample). 100 μl samples were aliquoted with 100 μg/ml of whole human IgG (Jackson #009-000-003) included for Fc receptor blocking. NKp30/mFc2-biotin probe was added at a concentration of 2 μg/ml and 100-fold mass excess of a VASP protein (NKp30/VASP or human zB7H6/VASP) or a control VASP protein (B7H3/VASP). Cells were incubated for 1 hour on ice and washed with 2 ml cold PBS. Washed cells were resuspended in 100 μl of PBS/2% FBS with streptavidin-PE (BD:554061) at 1 μg/ml and incubated for 15 minutes on ice. Cells were then washed with 1 ml cold PBS, resuspended in 250 μl of PBS, and analyzed for PE staining on a FACSCalibur.

| Binder | binding result [1] | binding result (NKp30/mFc2) |
| --- | --- | --- |
| B1 | binds | – |
| B2 | – | binds |

Reference: patent publication US20180258172A1 (ZymoGenetics, published 2018)
